Measured values taken from publication PMC10505919.

Target: Chlamydomonas reinhardtii RabL2, wild type (Chlamydomonas reinhardtii)
Experiment: ITC

“Chlamydomonas reinhardtii CEP19 residues 1-208 (domain or fragment)” showed a Kd of 12.7 µM.
